# Numbered stars: 1 amine (or outer) side, 2 acyl side, 3 side chain; on linkers, the order of the positions; unused ones are H or OH. Bridge positions count the residues as written; N and C are the ends. Side chains are listed from the residue outwards. Ends that are not written are not given here. * marks the point of attachment. C20 diacid = O=C(O)CCCCCCCCCCCCCCCCCCC(=O)*; γGlu = O=C(O)[C@H](CCC(=O)[*:2])N[*:1]
# T1: human calcitonin receptor (human, UniProt P30988 25-474)
# T1 construct: whole, on cells; Membranes of BHK cells stably transfected with the human calcitonin receptor (Assay VII); also called hCTR; hCT
# T1 sequence (looked up): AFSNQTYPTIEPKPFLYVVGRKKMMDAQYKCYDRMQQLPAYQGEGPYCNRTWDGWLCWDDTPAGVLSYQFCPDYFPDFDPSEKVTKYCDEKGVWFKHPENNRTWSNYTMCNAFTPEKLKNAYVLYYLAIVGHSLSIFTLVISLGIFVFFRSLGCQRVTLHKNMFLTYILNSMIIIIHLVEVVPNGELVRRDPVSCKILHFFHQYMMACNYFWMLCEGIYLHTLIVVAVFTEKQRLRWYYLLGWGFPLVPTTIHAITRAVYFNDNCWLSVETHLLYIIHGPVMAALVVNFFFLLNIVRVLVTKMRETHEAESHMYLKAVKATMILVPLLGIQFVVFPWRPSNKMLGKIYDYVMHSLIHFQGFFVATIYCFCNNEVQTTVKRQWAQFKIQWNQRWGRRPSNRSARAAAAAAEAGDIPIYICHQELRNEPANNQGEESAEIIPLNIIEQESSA
# B1: N^ε1-[(4S)-4-carboxy-4-(19-carboxynonadecanoylamino)butanoyl]-[Glu14,Arg17,Pro21,Pro27,Pro34,Glu35]-h-amylin (peptide)
# peptide: K([γGlu-C20 diacid])CNTATCATQRLAEFLRHSSPNFGAIPSSTNVGPETY-NH2
# modifications: disulfide 2-7; N-terminus assumed
# SMILES: CC[C@H](C)[C@H](NC(=O)[C@H](C)NC(=O)CNC(=O)[C@H](Cc1ccccc1)NC(=O)[C@H](CC(N)=O)NC(=O)[C@@H]1CCCN1C(=O)[C@H](CO)NC(=O)[C@H](CO)NC(=O)[C@H](Cc1c[nH]cn1)NC(=O)[C@H](CCCNC(=N)N)NC(=O)[C@H](CC(C)C)NC(=O)[C@H](Cc1ccccc1)NC(=O)[C@H](CCC(=O)O)NC(=O)[C@H](C)NC(=O)[C@H](CC(C)C)NC(=O)[C@H](CCCNC(=N)N)NC(=O)[C@H](CCC(N)=O)NC(=O)[C@@H](NC(=O)[C@H](C)NC(=O)[C@@H]1CSSC[C@H](NC(=O)[C@@H](N)CCCCNC(=O)CC[C@H](NC(=O)CCCCCCCCCCCCCCCCCCC(=O)O)C(=O)O)C(=O)N[C@@H](CC(N)=O)C(=O)N[C@@H]([C@@H](C)O)C(=O)N[C@@H](C)C(=O)N[C@@H]([C@@H](C)O)C(=O)N1)[C@@H](C)O)C(=O)N1CCC[C@H]1C(=O)N[C@@H](CO)C(=O)N[C@@H](CO)C(=O)N[C@H](C(=O)N[C@@H](CC(N)=O)C(=O)N[C@H](C(=O)NCC(=O)N1CCC[C@H]1C(=O)N[C@@H](CCC(=O)O)C(=O)N[C@H](C(=O)N[C@@H](Cc1ccc(O)cc1)C(N)=O)[C@@H](C)O)C(C)C)[C@@H](C)O
# B2: N^ε1-[(4S)-4-carboxy-4-[[(4S)-4-carboxy-4-(19-carboxynonadecanoylamino)butanoyl]amino]butanoyl]-[Glu14,Arg17,Pro21,Pro27,Pro34,Phe37]-h-amylin (peptide)
# peptide: K([γGlu-γGlu-C20 diacid])CNTATCATQRLAEFLRHSSPNFGAIPSSTNVGPNTF-NH2
# modifications: disulfide 2-7; N-terminus assumed
# SMILES: CC[C@H](C)[C@H](NC(=O)[C@H](C)NC(=O)CNC(=O)[C@H](Cc1ccccc1)NC(=O)[C@H](CC(N)=O)NC(=O)[C@@H]1CCCN1C(=O)[C@H](CO)NC(=O)[C@H](CO)NC(=O)[C@H](Cc1c[nH]cn1)NC(=O)[C@H](CCCNC(=N)N)NC(=O)[C@H](CC(C)C)NC(=O)[C@H](Cc1ccccc1)NC(=O)[C@H](CCC(=O)O)NC(=O)[C@H](C)NC(=O)[C@H](CC(C)C)NC(=O)[C@H](CCCNC(=N)N)NC(=O)[C@H](CCC(N)=O)NC(=O)[C@@H](NC(=O)[C@H](C)NC(=O)[C@@H]1CSSC[C@H](NC(=O)[C@@H](N)CCCCNC(=O)CC[C@H](NC(=O)CC[C@H](NC(=O)CCCCCCCCCCCCCCCCCCC(=O)O)C(=O)O)C(=O)O)C(=O)N[C@@H](CC(N)=O)C(=O)N[C@@H]([C@@H](C)O)C(=O)N[C@@H](C)C(=O)N[C@@H]([C@@H](C)O)C(=O)N1)[C@@H](C)O)C(=O)N1CCC[C@H]1C(=O)N[C@@H](CO)C(=O)N[C@@H](CO)C(=O)N[C@H](C(=O)N[C@@H](CC(N)=O)C(=O)N[C@H](C(=O)NCC(=O)N1CCC[C@H]1C(=O)N[C@@H](CC(N)=O)C(=O)N[C@H](C(=O)N[C@@H](Cc1ccccc1)C(N)=O)[C@@H](C)O)C(C)C)[C@@H](C)O
# B3: N^ε1-[(4S)-4-carboxy-4-[[(4S)-4-carboxy-4-(19-carboxynonadecanoylamino)butanoyl]amino]butanoyl]-[Ser14,Arg17,Pro21,Pro27,Pro34,Glu35]-h-amylin (peptide)
# peptide: K([γGlu-γGlu-C20 diacid])CNTATCATQRLASFLRHSSPNFGAIPSSTNVGPETY-NH2
# modifications: disulfide 2-7; N-terminus assumed
# SMILES: CC[C@H](C)[C@H](NC(=O)[C@H](C)NC(=O)CNC(=O)[C@H](Cc1ccccc1)NC(=O)[C@H](CC(N)=O)NC(=O)[C@@H]1CCCN1C(=O)[C@H](CO)NC(=O)[C@H](CO)NC(=O)[C@H](Cc1c[nH]cn1)NC(=O)[C@H](CCCNC(=N)N)NC(=O)[C@H](CC(C)C)NC(=O)[C@H](Cc1ccccc1)NC(=O)[C@H](CO)NC(=O)[C@H](C)NC(=O)[C@H](CC(C)C)NC(=O)[C@H](CCCNC(=N)N)NC(=O)[C@H](CCC(N)=O)NC(=O)[C@@H](NC(=O)[C@H](C)NC(=O)[C@@H]1CSSC[C@H](NC(=O)[C@@H](N)CCCCNC(=O)CC[C@H](NC(=O)CC[C@H](NC(=O)CCCCCCCCCCCCCCCCCCC(=O)O)C(=O)O)C(=O)O)C(=O)N[C@@H](CC(N)=O)C(=O)N[C@@H]([C@@H](C)O)C(=O)N[C@@H](C)C(=O)N[C@@H]([C@@H](C)O)C(=O)N1)[C@@H](C)O)C(=O)N1CCC[C@H]1C(=O)N[C@@H](CO)C(=O)N[C@@H](CO)C(=O)N[C@H](C(=O)N[C@@H](CC(N)=O)C(=O)N[C@H](C(=O)NCC(=O)N1CCC[C@H]1C(=O)N[C@@H](CCC(=O)O)C(=O)N[C@H](C(=O)N[C@@H](Cc1ccc(O)cc1)C(N)=O)[C@@H](C)O)C(C)C)[C@@H](C)O
# notes: also called compound 120
# B4: N^ε1-[(4S)-4-carboxy-4-[[(4S)-4-carboxy-4-(19-carboxynonadecanoylamino)butanoyl]amino]butanoyl]-[Glu14,Arg17,Pro23,Pro34,Glu35]-h-amylin (peptide)
# peptide: K([γGlu-γGlu-C20 diacid])CNTATCATQRLAEFLRHSSNNPGAILSSTNVGPETY-NH2
# modifications: disulfide 2-7; N-terminus assumed
# SMILES: CC[C@H](C)[C@H](NC(=O)[C@H](C)NC(=O)CNC(=O)[C@@H]1CCCN1C(=O)[C@H](CC(N)=O)NC(=O)[C@H](CC(N)=O)NC(=O)[C@H](CO)NC(=O)[C@H](CO)NC(=O)[C@H](Cc1c[nH]cn1)NC(=O)[C@H](CCCNC(=N)N)NC(=O)[C@H](CC(C)C)NC(=O)[C@H](Cc1ccccc1)NC(=O)[C@H](CCC(=O)O)NC(=O)[C@H](C)NC(=O)[C@H](CC(C)C)NC(=O)[C@H](CCCNC(=N)N)NC(=O)[C@H](CCC(N)=O)NC(=O)[C@@H](NC(=O)[C@H](C)NC(=O)[C@@H]1CSSC[C@H](NC(=O)[C@@H](N)CCCCNC(=O)CC[C@H](NC(=O)CC[C@H](NC(=O)CCCCCCCCCCCCCCCCCCC(=O)O)C(=O)O)C(=O)O)C(=O)N[C@@H](CC(N)=O)C(=O)N[C@@H]([C@@H](C)O)C(=O)N[C@@H](C)C(=O)N[C@@H]([C@@H](C)O)C(=O)N1)[C@@H](C)O)C(=O)N[C@@H](CC(C)C)C(=O)N[C@@H](CO)C(=O)N[C@@H](CO)C(=O)N[C@H](C(=O)N[C@@H](CC(N)=O)C(=O)N[C@H](C(=O)NCC(=O)N1CCC[C@H]1C(=O)N[C@@H](CCC(=O)O)C(=O)N[C@H](C(=O)N[C@@H](Cc1ccc(O)cc1)C(N)=O)[C@@H](C)O)C(C)C)[C@@H](C)O
# Target: T1, human calcitonin receptor
# Assay: SPA competition against 125I-calcitonin, membranes of BHK cells with human calcitonin receptor (Assay VII)
# Summary of the method: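 BHK hCTR membranes 35 ng/μL + SPA beads 0.05 mg/well; buffer 50 mM Hepes pH 7.4, 1 mM CaCl2, 5 mM MgCl₂, 0.1% OA, 0.02% Tween20. 120 min, 25° C., shaking. Scintillation count; IC50 by one-site binding competition.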
row,IC50,Binder
1,1.86 nM,B1
2,2.73 nM,B2
3,3.44 nM,B3
4,1.56 nM,K([γGlu-γGlu-C20 diacid])CNTATCATQRLAEFLRHSSPNFGAILSSTPVGPETY-NH2 (disulfide 2-7 (inferred))
5,9.29 nM,B4

# Target: T1, human calcitonin receptor
# Assay: ratio of IC50 at hCTR over IC50 at hAmylin-R (SPA competition assays)
# Summary of the method: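 Competition binding by SPA uses membrane preparations (35 ng/μL final) in pH 7.4 Hepes buffer with 1 mM CaCl2 and 5 mM MgCl₂. Incubation lasts 120 min at 25° C, and IC₅₀ comes from one-site fitting.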
row,Ratio hCT/hAmylin binding,Binder
1,13.3,B1
2,18,B2
3,45.3,B3
4,22.6,K([γGlu-γGlu-C20 diacid])CNTATCATQRLAEFLRHSSPNFGAILSSTPVGPETY-NH2 (disulfide 2-7 (inferred))
5,7.8,B4

# Reference: patent US20140087995A1 (published 2014)
